Laboratory results reported in the RNAGym collection of RNA variant scans (doi:10.7554/elife.80360).

B1: HDV Ribozyme (parent)
chain: GGCCGGCAUGGUCCCAGCCUCCUCGCUGGCGCCGGCUGGGCAACAUUCCGAGGGGACCGUCCCCUCGGUAAUGGCGAAUGGGACCCA

Variants of: B1
Experiment: self-cleavage, relative activity (ratio to wild type); higher = more cleavage; co-transcriptional

Q: Which self-cleavage does the source give for GGCCGGCAUGGUCCCAGCCUCCUCGCUGGCGCCGGCUGGUCAACAUUCCGAGGGGACCGUCCCCUCGGUAAUGGCGAAUGGGCCCCA [G40U A83C] here?
A: 0.453

Q: Which self-cleavage does the source give for GGCCGGCAUGGUCCCAGCCUCCUCUCUGGCGCCGGCUGGGCAACAUUCCGAGGGGACCGUCCCCUCGGUCAUGGCGAAUGGGACCCA [G25U A70C] here?
A: 0.237

Q: For GGCCGGCAUGGUCCCAGUCUCCUCGCUGGCGCCGGCUGGGCAACAUUCCGAGGGCACCGUCCCCUCGGUAAUGGCGAAUGGGACCCA [C18U G55C], which self-cleavage is on record?
A: 0.893

Q: Which self-cleavage does the source give for GGCCGGCAUGGUCCAAGCCUCCUCGCUGGCGCCGGCUGGGCAACAUUCCGAGGGGACCGUCCCCUCGGUAAUGGCGAAUGGGAUCCA [C15A C84U] here?
A: 0.665

Q: For GGCCGGCCUGGUCCCAGCCUCCUCGCUGGCGCCGGCUGGGCAACAUUCCGAGGUGACCGUCCCCUCGGUAAUGGCGAAUGGGACCCA [A8C G54U], which self-cleavage is on record?
A: 0.618

Q: With GGCCGCCAUGGUCCCAGCCUCCUCGCUGGCGCCGGCUGGGCAACAUUCCCAGGGGACCGUCCCCUCGGUAAUGGCGAAUGGGACCCA [G6C G50C] as the variant, how does the self-cleavage read?
A: 0.554

Q: With GGCCGGCAUGGUCCCAGCCUCCUCGCUGGCGUCGGCUGGGCAACAUUCCGAGGGGACCGUCCCAUCGGUAAUGGCGAAUGGGACCCA [C32U C64A] as the variant, how does the self-cleavage read?
A: 0.831

Q: Which self-cleavage does the source give for UGCCGGCAUGGUCCCAGCCUCCUCGCUGGCGCCGGCUGGGCAACAUUCCGAGGGGACCGUUCCCUCGGUAAUGGCGAAUGGGACCCA [G1U C61U] here?
A: 0.377

Q: For GGCCGGCCUGGUCCCAGCCUCCUCGCUGGCGCCGGCUGGGCAACAUUCCGAGGGGUCCGUCCCCUCGGUAAUGGCGAAUGGGACCCA [A8C A56U], which self-cleavage is on record?
A: 1

Q: For GACCGGCAUGGUCCCAGCCUCCUCGCUGGCGUCGGCUGGGCAACAUUCCGAGGGGACCGUCCCCUCGGUAAUGGCGAAUGGGACCCA [G2A C32U], which self-cleavage is on record?
A: 0.194

Q: With GGCCGGCAUGGUCCUAGCCUCCUCGCUGGCGCCGGCUGGGCAACAUUCCGAGGGGACCGUCCCCUCGGUAAUGGCGAAUGGGACUCA [C15U C85U] as the variant, how does the self-cleavage read?
A: 0.906

Q: Which self-cleavage does the source give for GGCCGCCAUGGUCCCAGCCUCCUCGCUGGCGCCGGCUGGGCAACAUUCCGAGGGCACCGUCCCCUCGGUAAUGGCGAAUGGGACCCA [G6C G55C] here?
A: 0.308

Q: For GGCCGUCAUGGUCCCAGCCUCCUCGCUGGCGCCGGCUGGGCAACAUUCCGAGGGGACCGUCCCCUCGGUAAUGGCGAAUGGGAUCCA [G6U C84U], which self-cleavage is on record?
A: 0.208

Q: Which self-cleavage does the source give for GGCUGGCAUGGUCCCAGCCUCCUCGCUGGCGCCGGCUGGGCAACAUUCCGAGGGGACCGUCACCUCGGUAAUGGCGAAUGGGACCCA [C4U C62A] here?
A: 1.06

Q: Which self-cleavage does the source give for CGCCGGCAUGGUCCCAGACUCCUCGCUGGCGCCGGCUGGGCAACAUUCCGAGGGGACCGUCCCCUCGGUAAUGGCGAAUGGGACCCA [G1C C18A] here?
A: 0.123

Q: Which self-cleavage does the source give for GGCCGGCAUCGUCCCAGCCUCCUCGCUGGCGCCGGCUGGGCAACAUUCCGAGGGGACCGUCCCCUCGGUAAUGGCCAAUGGGACCCA [G10C G76C] here?
A: 0.861

Q: Which self-cleavage does the source give for GGCCGGCAGGGUCCCAGCCUCCUCGCUGGCGCCGGCUAGGCAACAUUCCGAGGGGACCGUCCCCUCGGUAAUGGCGAAUGGGACCCA [U9G G38A] here?
A: 0.156

Q: For GGCCGGCAUGGUCCCAGCCUCCUCGCUGGCGCCGACUGGACAACAUUCCGAGGGGACCGUCCCCUCGGUAAUGGCGAAUGGGACCCA [G35A G40A], which self-cleavage is on record?
A: 0.346

Q: Which self-cleavage does the source give for GGCCGACAUGGUCCCAGCCUCCUCGCUGGCGCCGGCUGGGCAACAUUCCGAGGGGACCGCCCCCUCGGUAAUGGCGAAUGGGACCCA [G6A U60C] here?
A: 0.789

Q: For GGACGGCAUGGUCCCAGCCUCCUCGCUGGCGCCGGCUGGGCAACAUUCCGAGGGGACCGUCCCCUCGGUAAUGGCGAAUGGAACCCA [C3A G82A], which self-cleavage is on record?
A: 0.0811

Q: For GGCCGGCAUGGUCCCAGCCUCCUCGCUGGCGCCGGCUGGGCAACAUUCCGAGGGGACCGUCCCCUGAGUAAUGGCGAAUGGGACCCA [C66G G67A], which self-cleavage is on record?
A: 0.706

Q: With GGCCGGCAUGGUCCCAGCCUCCUCGCUGGCGCCGGCUGGGCUACAUUCCGAGGGGACCGUCCCCUCGGUAAUGGCGAAUGGAACCCA [A42U G82A] as the variant, how does the self-cleavage read?
A: 0.157

Q: For GGCCGGCAUGGUCCCAGCCUCCUCGCUGGCGCCGGCUGGGCAACAUUCCGAGGGGACCGACCCCUCGGUAAUGGCCAAUGGGACCCA [U60A G76C], which self-cleavage is on record?
A: 0.973

Q: Which self-cleavage does the source give for GGCCGGCAUGGUCCCAGCCUCCUCGCUGGCGCCGGCUGGGCAACAUUCCGAGGGGACCGUCCCGUCGGUAAUGGCGAAUGGCACCCA [C64G G82C] here?
A: 0.0811

Q: With GGCCGGCAUGGUCCCAGCCUCCUCGCUGGCGCCGGCUGGGCAACAUUCCGAGGGGACCGUCCCCUCGGUAAGGGCGAAUGGGAUCCA [U72G C84U] as the variant, how does the self-cleavage read?
A: 0.386

Q: For GGCCGGCAUGGUCCCAGCCUCCUCGCUGGCGCCGGCUGGGUAACAUUCCGAGGGGACCGUGCCCUCGGUAAUGGCGAAUGGGACCCA [C41U C61G], which self-cleavage is on record?
A: 0.923

Q: Which self-cleavage does the source give for GGCCGGCAUGGUCCCAGCCUCCUCGCUGGCGCCGGCUGGGCAACAUUCCGAGGAGACCGUCCCCUCGGCAAUGGCGAAUGGGACCCA [G54A U69C] here?
A: 0.95

Q: For GGCCGGCAUGGUCCCAGCCUCCUCGCUGGCGCCCGCUGGGCCACAUUCCGAGGGGACCGUCCCCUCGGUAAUGGCGAAUGGGACCCA [G34C A42C], which self-cleavage is on record?
A: 0.125

Q: For GGCCGGCAUGGGCCCAGCCUCCUCGCUGGCGCCGGCUGGGCAACAUUCCGAGGGGCCCGUCCCCUCGGUAAUGGCGAAUGGGACCCA [U12G A56C], which self-cleavage is on record?
A: 0.831

Q: For GGCCGGCAUGGUCCCAGCCUCCUCGAUGGCGCCGGCUGGGCAACAUUCCGAGGGGACGGUCCCCUCGGUAAUGGCGAAUGGGACCCA [C26A C58G], which self-cleavage is on record?
A: 1.09

Q: With GGCCGGCAUGAUCCCAGCCUCCUCGCUGGCGCCGGCUGGGCAACAUUGCGAGGGGACCGUCCCCUCGGUAAUGGCGAAUGGGACCCA [G11A C48G] as the variant, how does the self-cleavage read?
A: 0.288

Q: With GGCCGGCAUGGUCCCAGCCUCCCCGCUGGCGCCAGCUGGGCAACAUUCCGAGGGGACCGUCCCCUCGGUAAUGGCGAAUGGGACCCA [U23C G34A] as the variant, how does the self-cleavage read?
A: 0.0898
